In article PMC6220978, “Induced conformational changes activate the peptidoglycan synthase PBP1B” (Molecular Microbiology, 2018):

Target: T1, PBP1B Q318A (E. coli, UniProt P02919 46-844, Q318A)
T1 sequence (looked up): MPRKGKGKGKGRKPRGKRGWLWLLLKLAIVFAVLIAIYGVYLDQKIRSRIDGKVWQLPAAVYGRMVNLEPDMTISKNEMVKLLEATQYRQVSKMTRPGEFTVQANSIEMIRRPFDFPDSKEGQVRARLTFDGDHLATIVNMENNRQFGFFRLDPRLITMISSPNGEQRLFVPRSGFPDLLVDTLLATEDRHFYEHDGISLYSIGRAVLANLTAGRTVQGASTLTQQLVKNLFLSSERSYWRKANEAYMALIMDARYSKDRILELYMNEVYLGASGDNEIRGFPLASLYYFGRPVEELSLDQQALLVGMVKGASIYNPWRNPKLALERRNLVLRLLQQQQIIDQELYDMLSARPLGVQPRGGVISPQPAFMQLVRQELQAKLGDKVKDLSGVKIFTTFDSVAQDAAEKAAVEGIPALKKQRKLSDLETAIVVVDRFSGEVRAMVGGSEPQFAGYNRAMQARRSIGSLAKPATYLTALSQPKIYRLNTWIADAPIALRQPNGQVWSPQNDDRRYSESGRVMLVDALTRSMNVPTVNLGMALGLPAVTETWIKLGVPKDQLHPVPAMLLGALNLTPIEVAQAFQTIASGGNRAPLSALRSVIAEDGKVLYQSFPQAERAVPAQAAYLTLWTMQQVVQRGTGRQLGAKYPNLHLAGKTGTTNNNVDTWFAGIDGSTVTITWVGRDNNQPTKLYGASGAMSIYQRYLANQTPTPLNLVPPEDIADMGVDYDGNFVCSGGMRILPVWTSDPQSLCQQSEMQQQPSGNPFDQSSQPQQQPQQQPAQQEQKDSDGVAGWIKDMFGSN
Assay: cell-based or functional assay

fold activation of the GTase rate of PBP1B Q318A by LpoB: ~25 fold
B1: LpoB (natural protein, E. coli)
chain: VGQREPAPVEEVKPAPEQPAEPQQPVPTVPSVPTIPQQPGPIEHEDQTAPPAPHIRHYDWNGAMQPMVSKMLGADGVTAGSVLLVDSVNNRTNGSLNAAEATETLRNALANNGKFTLVSAQQLSMAKQQLGLSPQDSLGTRSKAIGIARNVGAHYVLYSSASGNVNAPTLQMQLMLVQTGEIIWSGKGAVSQQ
notes: LpoB, E. coli; also called lipoprotein LpoB; source: E. coli BL21(DE3), purified (HisTrap, Superdex 200), as in Egan et al. 2014
